Source: article PMC4786117, “Human PIEZO1 Ion Channel Functions as a Split Protein” (PLoS ONE, 2016)

Target: T1, hPIEZO1 C-terminal segment (residues 1592-2521) with N-terminal GFP (human, UniProt Q92508 1592-2521)
T1 construct: PIEZO1, human, residues 1592-2521, second cistron (after the IRES element) of the bicistronic vector hPIEZO1 NtCt; the methods say amplified from amino acid 1591 to the end, the results print 1592 to 2251 and 1591-2251; C-terminus amplified from HekP1; inserted at a SpeI site after the GFP of pIRES2-EGFP, so GFP precedes the segment; also called Ct-EGFP; C-terminal fragment; source: HEK293, …
T1 sequence (looked up): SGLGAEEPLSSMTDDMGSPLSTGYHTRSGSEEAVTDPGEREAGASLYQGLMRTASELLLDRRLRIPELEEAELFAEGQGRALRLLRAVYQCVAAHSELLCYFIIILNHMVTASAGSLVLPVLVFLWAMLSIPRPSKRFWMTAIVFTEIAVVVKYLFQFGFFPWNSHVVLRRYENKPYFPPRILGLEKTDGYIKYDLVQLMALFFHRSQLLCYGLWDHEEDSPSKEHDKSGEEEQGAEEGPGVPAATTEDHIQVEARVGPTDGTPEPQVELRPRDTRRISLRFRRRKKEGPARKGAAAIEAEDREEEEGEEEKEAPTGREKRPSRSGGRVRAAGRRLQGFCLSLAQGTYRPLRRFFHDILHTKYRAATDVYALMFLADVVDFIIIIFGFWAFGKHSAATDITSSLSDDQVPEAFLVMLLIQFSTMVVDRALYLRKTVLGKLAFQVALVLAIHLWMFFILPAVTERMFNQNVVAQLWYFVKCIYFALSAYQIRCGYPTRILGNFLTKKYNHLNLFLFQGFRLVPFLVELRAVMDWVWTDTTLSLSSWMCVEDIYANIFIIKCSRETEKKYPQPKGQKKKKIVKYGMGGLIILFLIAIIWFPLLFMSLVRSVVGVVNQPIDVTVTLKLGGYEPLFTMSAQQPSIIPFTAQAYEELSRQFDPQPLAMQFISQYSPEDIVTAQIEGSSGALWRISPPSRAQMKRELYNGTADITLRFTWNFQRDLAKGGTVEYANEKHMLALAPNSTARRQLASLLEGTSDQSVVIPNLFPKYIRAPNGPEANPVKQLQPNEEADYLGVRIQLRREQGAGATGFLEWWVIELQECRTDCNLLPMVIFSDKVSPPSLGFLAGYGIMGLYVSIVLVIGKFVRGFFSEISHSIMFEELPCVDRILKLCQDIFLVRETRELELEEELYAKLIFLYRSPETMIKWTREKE
Experiment: FRET or BRET; living HEK293 cells transfected with bicistronic vectors; EGFP and mCherry fusions; FRET ratio = 680 nm emission excited at 480 nm over 680 nm emission excited at 560 nm
Conditions: partners not purified

FRET ratio: 3.4
B1: hPIEZO1 N-terminal segment (residues 1-1591) with mCherry linked at its end (domain or fragment, human, UniProt Q92508 1-1591, looked up)
chain: MEPHVLGAVLYWLLLPCALLAACLLRFSGLSLVYLLFLLLLPWFPGPTRCGLQGHTGRLLRALLGLSLLFLVAHLALQICLHIVPRLDQLLGPSCSRWETLSRHIGVTRLDLKDIPNAIRLVAPDLGILVVSSVCLGICGRLARNTRQSPHPRELDDDERDVDASPTAGLQEAATLAPTRRSRLAARFRVTAHWLLVAAGRVLAVTLLALAGIAHPSALSSVYLLLFLALCTWWACHFPISTRGFSRLCVAVGCFGAGHLICLYCYQMPLAQALLPPAGIWARVLGLKDFVGPTNCSSPHALVLNTGLDWPVYASPGVLLLLCYATASLRKLRAYRPSGQRKEAAKGYEARELELAELDQWPQERESDQHVVPTAPDTEADNCIVHELTGQSSVLRRPVRPKRAEPREASPLHSLGHLIMDQSYVCALIAMMVWSITYHSWLTFVLLLWACLIWTVRSRHQLAMLCSPCILLYGMTLCCLRYVWAMDLRPELPTTLGPVSLRQLGLEHTRYPCLDLGAMLLYTLTFWLLLRQFVKEKLLKWAESPAALTEVTVADTEPTRTQTLLQSLGELVKGVYAKYWIYVCAGMFIVVSFAGRLVVYKIVYMFLFLLCLTLFQVYYSLWRKLLKAFWWLVVAYTMLVLIAVYTFQFQDFPAYWRNLTGFTDEQLGDLGLEQFSVSELFSSILVPGFFLLACILQLHYFHRPFMQLTDMEHVSLPGTRLPRWAHRQDAVSGTPLLREEQQEHQQQQQEEEEEEEDSRDEGLGVATPHQATQVPEGAAKWGLVAERLLELAAGFSDVLSRVQVFLRRLLELHVFKLVALYTVWVALKEVSVMNLLLVVLWAFALPYPRFRPMASCLSTVWTCVIIVCKMLYQLKVVNPQEYSSNCTEPFPNSTNLLPTEISQSLLYRGPVDPANWFGVRKGFPNLGYIQNHLQVLLLLVFEAIVYRRQEHYRRQHQLAPLPAQAVFASGTRQQLDQDLLGCLKYFINFFFYKFGLEICFLMAVNVIGQRMNFLVTLHGCWLVAILTRRHRQAIARLWPNYCLFLALFLLYQYLLCLGMPPALCIDYPWRWSRAVPMNSALIKWLYLPDFFRAPNSTNLISDFLLLLCASQQWQVFSAERTEEWQRMAGVNTDRLEPLRGEPNPVPNFIHCRSYLDMLKVAVFRYLFWLVLVVVFVTGATRISIFGLGYLLACFYLLLFGTALLQRDTRARLVLWDCLILYNVTVIISKNMLSLLACVFVEQMQTGFCWVIQLFSLVCTVKGYYDPKEMMDRDQDCLLPVEEAGIIWDSVCFFFLLLQRRVFLSHYYLHVRADLQATALLASRGFALYNAANLKSIDFHRRIEEKSLAQLKRQMERIRAKQEKHRQGRVDRSRPQDTLGPKDPGLEPGPDSPGGSSPPRRQWWRPWLDHATVIHSGDYFLFESDSEEEEEAVPEDPRPSAQSAFQLAYQAWVTNAQAVLRRRQQEQEQARQEQAGQLPTGGGPSQEVEPAEGPEEAAAGRSHVVQRVLSTAQFLWMLGQALVDELTRWLQEFTRHHGTMSDVLRAERYLLTQELLQGGEVHRGVLDQLYTSQAEATLPGPTEAPNAPSTVS
notes: PIEZO1, human, residues 1-1591, first cistron of the bicistronic vector hPIEZO1 NtCt; also called Nt-mCherry; N-terminal fragment; source: HEK293, transfected with the bicistronic plasmid hPIEZO1 NtCt, in living cells; not shown: mCherry, C-terminal, kept
